According to IntAct's records for PubMed 18020948:

B1: Integrin alpha-L (Homo sapiens), P20701 (parent)
chain: MKDSCITVMAMALLSGFFFFAPASSYNLDVRGARSFSPPRAGRHFGYRVLQVGNGVIVGAPGEGNSTGSLYQCQSGTGHCLPVTLRGSNYTSKYLGMTLATDPTDGSILACDPGLSRTCDQNTYLSGLCYLFRQNLQGPMLQGRPGFQECIKGNVDLVFLFDGSMSLQPDEFQKILDFMKDVMKKLSNTSYQFAAVQFSTSYKTEFDFSDYVKRKDPDALLKHVKHMLLLTNTFGAINYVATEVFREELGARPDATKVLIIITDGEATDSGNIDAAKDIIRYIIGIGKHFQTKESQETLHKFASKPASEFVKILDTFEKLKDLFTELQKKIYVIEGTSKQDLTSFNMELSSSGISADLSRGHAVVGAVGAKDWAGGFLDLKADLQDDTFIGNEPLTPEVRAGYLGYTVTWLPSRQKTSLLASGAPRYQHMGRVLLFQEPQGGGHWSQVQTIHGTQIGSYFGGELCGVDVDQDGETELLLIGAPLFYGEQRGGRVFIYQRRQLGFEEVSELQGDPGYPLGRFGEAITALTDINGDGLVDVAVGAPLEEQGAVYIFNGRHGGLSPQPSQRIEGTQVLSGIQWFGRSIHGVKDLEGDGLADVAVGAESQMIVLSSRPVVDMVTLMSFSPAEIPVHEVECSYSTSNKMKEGVNITICFQIKSLIPQFQGRLVANLTYTLQLDGHRTRRRGLFPGGRHELRRNIAVTTSMSCTDFSFHFPVCVQDLISPINVSLNFSLWEEEGTPRDQRAQGKDIPPILRPSLHSETWEIPFEKNCGEDKKCEANLRVSFSPARSRALRLTAFASLSVELSLSNLEEDAYWVQLDLHFPPGLSFRKVEMLKPHSQIPVSCEELPEESRLLSRALSCNVSSPIFKAGHSVALQMMFNTLVNSSWGDSVELHANVTCNNEDSDLLEDNSATTIIPILYPINILIQDQEDSTLYVSFTPKGPKIHQVKHMYQVRIQPSIHDHNIPTLEAVVGVPQPPSEGPITHQWSVQMEPPVPCHYEDLERLPDAAEPCLPGALFRCPVVFRQEILVQVIGTLELVGEIEASSMFSLCSSLSISFNSSKHFHLYGSNASLAQVVMKVDVVYEKQMLYLYVLSGIGGLLLLLLIFIVLYKVGFFKRNLKEKMEAGRGVPNGIPAEDSEQLASGQEAGDPGCLKPLHEKDSESGGGKD
partner: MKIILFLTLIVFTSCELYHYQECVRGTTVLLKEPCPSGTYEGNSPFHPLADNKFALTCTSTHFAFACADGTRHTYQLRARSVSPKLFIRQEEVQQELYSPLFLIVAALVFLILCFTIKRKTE

Variants of: B1
Details: with ns7a_sars ns7a

| Variant | effect of a mutation on the interaction |
| --- | --- |
| K288C;K293C | increasing interaction strength |
